Assay results taken from US20150017095A1 (AbbVie / Abbott, published 2015).

B1: 2B5-hLL-8C11 anti-murine TNFα/anti-PGE2 DVD-Ig with human long linker (bispecific antibody, human IgG1)
VH: QVQLQQSGPELVRPGSSVKISCKASGYTFTKYWLGWVKQRPGHGLEWIGDIYPGYDYTHYNEKFKDKATLTVDTSSSTAYMQLSSLTSEDSAIYYCARSDGSSTYWGQGTLVTVSAASTKGPSVFPLAPEFQLQQSGPELVKPGASVRISCKASGYSFTDYNMNWVKQSNGKSLEWVGVINPNYGSSTYNQKFKGKATLTVDQSSSTAYMQLNSLTSEDSAVYYCARKWGQLGRGFFDVWGTGTTVTVSS
VL: DVLMTQTPLSLPVSLGDQASISCTSSQNIVHSNGNTYLEWYLQRPGQSPKLLIYKVSNRFSGVPDRFSGSGSGTVFTLKISRVEAEDLGVYYCFQVSHVPYTFGGGTKLEIKRTVAAPSVFIFPPQIVLSQSPAILSASPGEKVTMTCRASSSVSYMHWFQQKPGSSPKPWIYATSNLASGVPARFSGSGSGTSYSLTISRVEAEDAATYYCQQWSSSPLTFGAGTKLELKR
notes: DVD-Ig; Outer domain is 2B5 (PGE2), inner domain is 8C11 (murine TNFα)
B2: 2B5-hSL-8C11 anti-murine TNFα/anti-PGE2 DVD-Ig with human short linker (bispecific antibody)
VH: QVQLQQSGPELVRPGSSVKISCKASGYTFTKYWLGWVKQRPGHGLEWIGDIYPGYDYTHYNEKFKDKATLTVDTSSSTAYMQLSSLTSEDSAIYYCARSDGSSTYWGQGTLVTVSAASTKGPEFQLQQSGPELVKPGASVRISCKASGYSFTDYNMNWVKQSNGKSLEWVGVINPNYGSSTYNQKFKGKATLTVDQSSSTAYMQLNSLTSEDSAVYYCARKWGQLGRGFFDVWGTGTTVTVSS
VL: DVLMTQTPLSLPVSLGDQASISCTSSQNIVHSNGNTYLEWYLQRPGQSPKLLIYKVSNRFSGVPDRFSGSGSGTVFTLKISRVEAEDLGVYYCFQVSHVPYTFGGGTKLEIKRTVAAPQIVLSQSPAILSASPGEKVTMTCRASSSVSYMHWFQQKPGSSPKPWIYATSNLASGVPARFSGSGSGTSYSLTISRVEAEDAATYYCQQWSSSPLTFGAGTKLELKR
notes: DVD-Ig; Outer domain is 2B5 (PGE2), inner domain is 8C11 (murine TNFα); also called 2B5-huSL-8C11
B3: anti-TNFα monoclonal antibody clone 8C11 (antibody, V domains shown)
VH: EFQLQQSGPELVKPGASVRISCKASGYSFTDYNMNWVKQSNGKSLEWVGVINPNYGSSTYNQKFKGKATLTVDQSSSTAYMQLNSLTSEDSAVYYCARKWGQLGRGFFDVWGTGTTVTVSS
VL: QIVLSQSPAILSASPGEKVTMTCRASSSVSYMHWFQQKPGSSPKPWIYATSNLASGVPARFSGSGSGTSYSLTISRVEAEDAATYYCQQWSSSPLTFGAGTKLELKR
notes: Murine hybridoma antibody against murine TNFα; also called 8C11-1E10; anti-mouse TNF monoclonal antibody

How the values were obtained:
murine TNFα [1] = target: T1, murine TNFα (murine, UniProt P06804 80-235); assay: cell-based or functional assay
T1 sequence (looked up): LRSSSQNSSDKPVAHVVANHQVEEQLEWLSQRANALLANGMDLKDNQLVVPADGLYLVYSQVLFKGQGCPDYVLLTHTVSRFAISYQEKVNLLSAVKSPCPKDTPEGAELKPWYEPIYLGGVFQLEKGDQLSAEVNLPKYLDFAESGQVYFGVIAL

murine TNFα [2] = target: T1, murine TNFα; assay: ELISA, TNFα binding activity (Example 2.2.3.3)

Row | Binder | IC50, L929 assay (TNFα-induced cell death) (murine TNFα [1]) [pM] | IC50 (murine TNFα [2]) [pM]
1 | B1 | 88 | 256
2 | B2 | 4390 | 234
3 | B3 | 5850 | 201
